The values that follow come from US20070224178A1 (Sanofi, published 2007).

The kon is the rate constant with which the complex forms. Higher therefore signals fast association. By koff is commonly meant the rate constant with which the complex falls apart. A higher koff goes with fast dissociation. As usually defined, the Kd is the equilibrium constant for the complex coming apart.

The target in experiment [1] is Vascular endothelial growth factor (VEGF) (Homo sapiens (Human)) (UniProt P15692). Kind of experiment: surface plasmon resonance (BIAcore), sFlt-1 construct immobilized on the chip, VEGF165 injected at 0.2 to 15 nM; column Ka. (In general: In SPR one partner is held on a chip, and binding of the other changes the refractive index at the surface.)
Experiment [2] shares this target. Kind of experiment: surface plasmon resonance (BIAcore), sFlt-1 construct immobilized on the chip, VEGF165 injected at 0.2 to 15 nM; column Kd.
The target is the same in experiment [3]. Nature of the experiment: surface plasmon resonance (BIAcore), sFlt-1 construct immobilized on the chip, VEGF165 injected at 0.2 to 15 nM; the column head prints KD (nM), but the printed Kd/Ka (1.22e-3 / 2.71e6) gives about 4.5e-10 M.
Experiment [4] has as its target T1, Vascular endothelial growth factor (VEGF) (Homo sapiens (Human), UniProt P15692 181-395).
T1 construct: also called VEGF165; VEGF A
T1 sequence: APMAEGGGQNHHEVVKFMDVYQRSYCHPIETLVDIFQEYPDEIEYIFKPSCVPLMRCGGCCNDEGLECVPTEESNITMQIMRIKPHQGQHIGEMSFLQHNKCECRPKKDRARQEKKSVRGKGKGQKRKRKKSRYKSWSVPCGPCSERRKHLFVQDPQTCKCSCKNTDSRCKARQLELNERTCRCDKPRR
Nature of the experiment: solution binding assay: serially diluted conditioned medium with soluble receptor mixed with 10 pM VEGF, unbound VEGF measured by ELISA. The protocol:
FIG. 11. VEGF “in vitro” binding assay. Conditioned media from 293 cells containing known concentrations of both D2-9Gly-Fc and Flt-1 D(1-3) control soluble receptors (ranging in concentrations from 0.29-150 pM) were serially diluted and mixed with 10 pM VEGF. The amount of unbound VEGF was then measured by ELISA. D2-9Gly-Fc binds VEGF with higher affinity than all other constructs. “n” represents the number of independent experiments (transfection and binding assay).
Briefly, conditioned media containing known concentrations of soluble receptor (ranging in concentrations from 0.29-150 pM) were serially diluted and mixed with 10 pM VEGF. The amount of unbound VEGF was then measured by ELISA. […] D2-CH3 has the lowest affinity to bind VEGF (FIG. 11).

As for “rFlt-1(Fc)(R&D) (from UniProt P17948-2) (Fc fusion)”, the kon in experiment [1] is 2.71e+06 M⁻¹ s⁻¹. The molecule further yielded a koff in experiment [2] of 0.00122 s⁻¹. The Kd in experiment [3] amounted to 448 pM.

B1: D2-9Gly-Ex3/CH3 (other)
chain: PFVEMYSEIPEIIHMTEGRELVIPCRVTSPNITVTLKKFPLDTLIPDGKRIIWDSRKGFIISNATYKEIGLLTCEATVNGHLYKTNYLTHRQTGGGGGGGGGPSCVPLMRCGGCCNGQPREPQVYTLPPSREEMTKNQVSLTCLVKGFYPSDIAVEWESNGQPENNYKTTPPVLDSDGSFFLYSKLTVDKSRWQQGNVFSCSVMHEALHNHYTQKSLSLSPGK
notes: domain: Flt-1 domain 2; Conditioned medium of transfected 293 cells
Turning to B1, in experiment [4], the “IC50 (read off the curve)” value is roughly 0.9 pM.

B2: D2-9Gly-CH3 (other)
chain: PFVEMYSEIPEIIHMTEGRELVIPCRVTSPNITVTLKKFPLDTLIPDGKRIIWDSRKGFIISNATYKEIGLLTCEATVNGHLYKTNYLTHRQTGGGGGGGGGGQPREPQVYTLPPSREEMTKNQVSLTCLVKGFYPSDIAVEWESNGQPENNYKTTPPVLDSDGSFFLYSKLTVDKSRWQQGNVFSCSVMHEALHNHYTQKSLSLSPGK
notes: as for B1
In the case of B2, the “IC50 (read off the curve)” value in experiment [4] is roughly 0.5 pM.

B3: D(1-3) (receptor, human (by the accession given in p-0034), UniProt P17948 27-328, looked up)
soluble receptor fragment: SKLKDPELSLKGTQHIMQAGQTLHLQCRGEAAHKWSLPEMVSKESERLSITKSACGRNGKQFCSTLTLNTAQANHTGFYSCKYLAVPTSKKKETESAIYIFISDTGRPFVEMYSEIPEIIHMTEGRELVIPCRVTSPNITVTLKKFPLDTLIPDGKRIIWDSRKGFIISNATYKEIGLLTCEATVNGHLYKTNYLTHRQTNTIIDVQISTPRPVKLLRGHTLVLNCTATTPLNTRVQMTWSYPDEKNKRASVRRRIDQSNSHANIFYSVLTIDKMQNKDKGLYTCRVRSGPSFKSVNTSVHI
notes: soluble fragment, Ig-like domains 1-3; made in conditioned medium of 293 cells; also called Flt-1 D(1-3) control soluble receptor
For the molecule B3, in experiment [4], the “IC50 (read off the curve)” value was roughly 1 pM.
